Data reported in publication PMC10372118.

Columns and labels:
Assay in all cases: BLI
[1] = biological target: truncated human ACE2 (residues 19-613 with a C-terminal AviTag and 6xHis-tag), biotinylated (human) (UniProt Q9BYF1)
[2] = biological target: human ACE2 polymorphism K26R (rs4646116) (human) (UniProt Q9BYF1)
[3] = biological target: human ACE2 polymorphism S19P (rs73635825) (human) (UniProt Q9BYF1)
[4] = biological target: human ACE2 polymorphism E35K (rs1348114695) (human) (UniProt Q9BYF1)

Row | Substance | t1/2 [1] | Kd [2] [nM] | Kd [3] [nM] | Kd [4] [nM]
1 | SARS-CoV-2 Omicron BA.2 RBD (from UniProt P0DTC2) (domain or fragment) | 2.7 min | 5.18 | 4.97 | –
2 | SARS-CoV-2 RBD of Beta (B.1.351) (from UniProt P0DTC2) (domain or fragment) | 165 | – | – | –
3 | SARS-CoV-2 RBD of Delta (B.1.617.2) (from UniProt P0DTC2) (domain or fragment) | 2.4 min | – | – | 43.3
4 | SARS-CoV-2 ancestral receptor-binding domain (RBD), recombinant (from UniProt P0DTC2) (domain or fragment) | – | – | 14.4 | –
